Two variants from doi:10.1101/2025.05.16.654433 can be followed below.

The chains are these.
B1: APE-1::GFP::3xflag (endogenous APE-1 tagged with 3xflag and GFP) [C. elegans] / HaloTag::GSP-2 (endogenously HaloTagged GSP-2 labeled with JF646) [modified: far-red dye JF646 on the HaloTag; far-red dye JF646 on the HaloTag] … (parent)
chain 1: MVTTSSGGGIGYPANNGVTQVSLIHSSDSVRTVSTAPIYRPTSSMASTMAHKSSTAPFISANQRMSKPPVRVVAQPPPPHPQALSQQYHQQNPMMMYSAPNTRPHVIPTMQVQPTMAAQIKRNNPVNAQFQNPSEMIADYGVKPQSVEMVQRVRAVRRQVADEETELRRLRELEHETAQLQNKNYGRERELNVQGSMLKEAQLELRNASMRAQSLNKHLEEMYRRRQTAAAAALVEQRKMQQHQILLARAANQVSTQEVIRPRASVEPFQVNNTQQQQPSPQMMKSEEFSEKRDLNGQTGSYDAIDGSGDHQKIPTEPSYLAPCKENQQKYSELSKMASTDPHSNHSSPSTSSQKAPTLITFSPPSFEQKINSSTMTRDSPFVERPTSFGDSLDESRLRSGKTDLVSLRSDSLKATKRRSWAASEGTSMSEAEMIHRLLDEQRRGRSHFIPQLPTSQEEPSAITSETYAEEVVNSESKQVATSSDSTNNLELPTEQMVLGSDTTTEEDASSCSTRSDDGQNLEMEVAIERRTVKGILRRPNEKMNKGRIEFDPLALLLDAALEGELDLVRSSASKLTDVSQANDEGITALHNAICAGHYEIVRFLIENDADVNAQDSDGWTPLHCAASCNNLPMVRQLVEGGGCVLASTLSDMETPVEKCEEDEDGYDGCLKYLSAAHNSTGSINTGKVYAAYGYEAAFEDELSFDAGDELTVIEKDKVDKNWWTCEKNNGEKGQVPRTYLALYPSLKYRKKLNFVMFDLPLESNNNVE
chain 2: MDVEKLNLDNIISRLLEVRGSKPGKNVQLTESEIKGLCQKSREIFLSQPILLELEAPLKICGDVHGQYYDLLRLFEYGGFPPESNYLFLGDYVDRGKQSLETICLLLAYKIKYPENFFLLRGNHECASINRIYGFYDECKRRYNIKLWKTFTDCFNCLPVAAIIDEKIFCCHGGLSPDLQSMEQIRRIMRPTDVPDQGLLCDLLWSDPDKDVTGWGENDRGVSFTFGPEVVAKFLHKHDLDLICRAHQVVEDGYEFFAKRQLVTLFSAPNYCGEFDNAGSMMTVDETLMCSFQILKPADKKKYPYGAGGVGSNRPVTPPRNAPAAQPKKGAKK

The variants in one assay derive from B1. In words: single molecule photobleaching analysis (TIRF microscopy) on anti-flag functionalized coverslips. The conditions noted are these: with HaloTag::GSP-2 (endogenously HaloTagged GSP-2 labeled with JF646) [modified: far-red dye JF646 on the HaloTag, whole worm lysates, HaloTag::GSP-2 labeled with JF646, p = 0.008 vs APE-1, read off a plot.
Turning to chain 1 N583K, the screen value is 34%.

The assay is the same for the next values; noted with them: with HaloTag::GSP-2 (endogenously HaloTagged GSP-2 labeled with JF646) [modified: far-red dye JF646 on the HaloTag, whole worm lysates, HaloTag::GSP-2 labeled with JF646, p=0.531 vs APE-1, read off a plot.
On to chain 1 H591Y, for which the screen value is 38%.
